Measurements reported in PMC6596994 (Nature, 2019).
Where two headings read alike, the source gives them in different places.

Key:
[1] = molecular target: T1, Mouse TBK1 (1–657, S172A) (mouse, UniProt Q9WUN2 1-657, S172A); assay: SPR
T1 sequence: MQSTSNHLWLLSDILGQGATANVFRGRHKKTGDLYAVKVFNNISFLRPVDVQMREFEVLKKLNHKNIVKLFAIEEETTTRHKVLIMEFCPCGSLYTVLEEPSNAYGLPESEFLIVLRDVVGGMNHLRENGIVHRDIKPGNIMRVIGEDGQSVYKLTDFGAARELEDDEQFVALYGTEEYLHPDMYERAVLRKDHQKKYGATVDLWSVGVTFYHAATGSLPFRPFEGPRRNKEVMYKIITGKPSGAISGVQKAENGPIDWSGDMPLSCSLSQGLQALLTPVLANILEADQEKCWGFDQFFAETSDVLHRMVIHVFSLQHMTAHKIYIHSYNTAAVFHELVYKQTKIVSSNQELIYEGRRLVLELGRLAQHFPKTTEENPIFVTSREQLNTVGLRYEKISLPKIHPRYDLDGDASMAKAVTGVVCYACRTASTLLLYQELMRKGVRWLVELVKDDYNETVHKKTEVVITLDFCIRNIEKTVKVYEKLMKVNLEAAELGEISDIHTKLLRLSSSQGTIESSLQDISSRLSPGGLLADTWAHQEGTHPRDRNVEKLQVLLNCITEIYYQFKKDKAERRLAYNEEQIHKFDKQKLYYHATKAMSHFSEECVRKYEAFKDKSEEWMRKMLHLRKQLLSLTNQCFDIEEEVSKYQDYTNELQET

Mouse TBK1 (1–657) = molecular target: T2, Mouse TBK1 (1–657) (mouse, UniProt Q9WUN2 1-657); assay: SPR
T2 sequence: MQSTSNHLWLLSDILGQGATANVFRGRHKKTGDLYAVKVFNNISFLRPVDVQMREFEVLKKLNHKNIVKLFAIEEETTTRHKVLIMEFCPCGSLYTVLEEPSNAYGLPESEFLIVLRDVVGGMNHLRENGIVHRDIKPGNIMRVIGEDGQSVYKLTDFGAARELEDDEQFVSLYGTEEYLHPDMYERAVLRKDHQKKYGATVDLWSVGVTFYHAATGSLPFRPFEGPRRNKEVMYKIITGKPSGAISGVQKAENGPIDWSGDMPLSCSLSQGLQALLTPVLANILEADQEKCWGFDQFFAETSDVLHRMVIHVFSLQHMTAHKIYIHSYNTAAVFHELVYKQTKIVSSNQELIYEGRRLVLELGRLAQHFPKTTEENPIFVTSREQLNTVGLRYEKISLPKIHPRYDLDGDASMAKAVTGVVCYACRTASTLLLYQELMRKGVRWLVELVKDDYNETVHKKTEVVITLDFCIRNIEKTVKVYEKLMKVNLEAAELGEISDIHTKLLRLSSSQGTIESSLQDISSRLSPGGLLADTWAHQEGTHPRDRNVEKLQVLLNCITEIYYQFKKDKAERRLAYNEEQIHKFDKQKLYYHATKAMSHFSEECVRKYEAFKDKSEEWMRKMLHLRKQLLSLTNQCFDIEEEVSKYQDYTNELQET

[2] = molecular target: T3, Human TBK1 (1–657, S172A) (human, UniProt Q9UHD2 1-657, S172A); assay: SPR
T3 sequence: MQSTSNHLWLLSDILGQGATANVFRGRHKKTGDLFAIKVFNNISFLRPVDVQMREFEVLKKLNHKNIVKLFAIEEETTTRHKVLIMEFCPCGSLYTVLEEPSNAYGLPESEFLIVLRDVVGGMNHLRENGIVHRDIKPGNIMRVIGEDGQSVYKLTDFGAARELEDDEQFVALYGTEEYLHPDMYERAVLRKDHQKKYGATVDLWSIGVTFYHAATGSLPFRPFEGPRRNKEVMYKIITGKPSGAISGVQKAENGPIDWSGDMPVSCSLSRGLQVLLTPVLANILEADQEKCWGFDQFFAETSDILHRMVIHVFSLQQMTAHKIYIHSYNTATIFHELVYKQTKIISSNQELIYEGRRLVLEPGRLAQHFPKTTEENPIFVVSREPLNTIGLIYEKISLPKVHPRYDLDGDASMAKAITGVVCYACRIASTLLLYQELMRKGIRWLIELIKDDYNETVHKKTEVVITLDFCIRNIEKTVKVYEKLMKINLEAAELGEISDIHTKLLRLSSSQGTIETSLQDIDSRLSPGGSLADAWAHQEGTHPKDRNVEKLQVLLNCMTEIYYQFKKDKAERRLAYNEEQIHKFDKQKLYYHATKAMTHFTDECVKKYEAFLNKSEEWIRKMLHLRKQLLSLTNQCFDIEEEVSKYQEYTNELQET

[3] = molecular target: T1, Mouse TBK1 (1–657, S172A); assay: SPR; remark: listed apart in the source
[4] = molecular target: T3, Human TBK1 (1–657, S172A); assay: SPR; remark: listed apart in the source
[5] = molecular target: T4, Human TBK1 (residue 1–657, S172E, D135N) (human, UniProt Q9UHD2 1-657, S172E | D135N); assay: crystal structure
T4 sequence: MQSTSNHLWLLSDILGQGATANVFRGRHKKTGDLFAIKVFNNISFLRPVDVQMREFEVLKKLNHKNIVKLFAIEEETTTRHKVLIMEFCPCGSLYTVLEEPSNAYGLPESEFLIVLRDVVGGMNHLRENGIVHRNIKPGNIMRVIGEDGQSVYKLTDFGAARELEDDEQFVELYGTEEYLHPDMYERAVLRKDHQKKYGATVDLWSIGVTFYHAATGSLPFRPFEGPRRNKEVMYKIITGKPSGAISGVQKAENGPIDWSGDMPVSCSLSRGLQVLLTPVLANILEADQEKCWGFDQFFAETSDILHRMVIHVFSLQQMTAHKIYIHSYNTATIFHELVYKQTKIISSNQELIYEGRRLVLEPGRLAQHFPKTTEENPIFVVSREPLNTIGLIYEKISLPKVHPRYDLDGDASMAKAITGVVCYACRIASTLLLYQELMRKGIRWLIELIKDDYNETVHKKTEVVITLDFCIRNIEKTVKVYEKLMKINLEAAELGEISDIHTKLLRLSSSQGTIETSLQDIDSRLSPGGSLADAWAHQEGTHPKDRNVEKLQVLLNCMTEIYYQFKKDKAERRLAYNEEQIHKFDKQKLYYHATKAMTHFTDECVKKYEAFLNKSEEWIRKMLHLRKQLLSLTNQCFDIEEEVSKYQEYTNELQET

B1: p-hSTING (155–379) (domain or fragment)
chain: VAHGLAWSYYIGYLRLILPELQARIRTYNQHYNNLLRGAVSQRLYILLPLDCGVPDNLSMADPNIRFLDKLPQQTGDHAGIKDRVYSNSIYELLENGQRAGTCVLEYATPLQTLFAMSQYSQAGFSREDRLEQAKLFCRTLEDILADAPESQNNCRLIAYQEPADDSSFSLSQEVLRHLRQEEKEEVTVGSLKTSAVPSTSTMSQEPELLISGMEKPLPLRTDFS
With B1 the Kd [1] was 9.1 µM, the Kd (Mouse TBK1 (1–657)) was 13.3 µM and the Kd [2] was 11 µM. The Kd [3] was 12.5 µM and the Kd [4] was 20 µM.

B2: human STING CTD (residues 155 to 379, T376E, F378M, S379W), crystallised (domain or fragment)
chain: VAHGLAWSYYIGYLRLILPELQARIRTYNQHYNNLLRGAVSQRLYILLPLDCGVPDNLSMADPNIRFLDKLPQQTGDHAGIKDRVYSNSIYELLENGQRAGTCVLEYATPLQTLFAMSQYSQAGFSREDRLEQAKLFCRTLEDILADAPESQNNCRLIAYQEPADDSSFSLSQEVLRHLRQEEKEEVTVGSLKTSAVPSTSTMSQEPELLISGMEKPLPLREDMW
B2: binds [5].
